From PMC4634933, “Development of a Novel PET Tracer [^18F]AlF-NOTA-C6 Targeting MMP2 for Tumor Imaging” (PLoS ONE, 2015)
Bridge positions count the residues as written; N and C are the ends. Peptide text beside a SMILES is read from it. * marks the point of attachment. NOTA = O=C(O)CN1CCN(CC(=O)O)CCN(CC(=O)*)CC1

Assays:
[1] = tested on: gelatinase; design: method as in PMID 19424760; conditions: cited from earlier work
[2] = assay type: physicochemical
Method: To examine in vitro stability, approximately 400 μL of [^18F]AlF-NOTA-C6 and 2 mL of physiological saline at room temperature, or 2 mL of human serum at 37°C, were mixed and incubated for 4 h. During the incubation, 200-μL samples were collected at 2 and 4 h. The samples were subsequently analyzed by radio-HPLC.

[3] = in vivo; design: species or system mice; conditions: female, BALB/c nude, mouse, in vivo, iv, 0.74 MBq, total radioactivity
Method: (§1) Tumor-bearing mice were prepared via a subcutaneous injection of cancer cells into the forelegs of female (SKOV3) or male (PC3) BALB/c nude mice (B&K Universal, Shanghai, China) at 6 weeks of age (body weight 18–20 g). When tumors were palpable, i.e., approximately 5 mm in diameter, the mice were used for biodistribution and PET imaging experiments. Biodistribution experiments were performed via intravenous administration of [^18F]AlF-NOTA-C6 (0.74 MBq) to mice bearing SKOV3 tumors. At 30, 60, and 120 min PI (n = 4 mice/timepoint), the mice were euthanized and the biological samples of interest (e.g., blood, tumor, muscle, lung, spleen, kidney, liver, and small intestine) were harvested and weighed. In the blocking experiments, the mice (n = 4) were pre-blocked with unlabeled C6 at 10 mg/kg body weight prior to the tracer injection; at 60 min PI of [^18F]AlF-NOTA-C6, the mice were euthanized as previously described. The radioactivity values of the tissues and injection standards were subsequently measured in a γ-counter. The samples were corrected for radioactive decay to calculate the percent of injected dose (ID) to grams of tissue (%ID/g) relative to a standard that represented the injected dose.

[4] = tested on: SKOV3 tumor-bearing mice; test: in vivo
Method: as §1

[5] = tested on: SKOV3 tumors; test: MicroPET imaging of SKOV3 tumor-bearing mice; assay type: in vivo; conditions: 3.7 MBq via tail vein, non-blocked
Method: Tumor-bearing mice were prepared via a subcutaneous injection of cancer cells into the forelegs of female (SKOV3) or male (PC3) BALB/c nude mice (B&K Universal, Shanghai, China) at 6 weeks of age (body weight 18–20 g). When tumors were palpable, i.e., approximately 5 mm in diameter, the mice were used for biodistribution and PET imaging experiments. PET imaging was performed on 4 mice bearing SKOV3 tumors using a microPET scanner; prior to the tracer injection, 2 mice were pre-blocked with unlabeled C6 at 10 mg/kg body weight, and 2 mice were not pre-blocked. Pre-blocked and non-blocked mice were then administered 3.7 MBq of [^18F]AlF-NOTA-C6, via tail vein injection. At 30, 60, and 120 min post-injection (PI), the mice were anesthetized with 1–2% isoflurane, positioned supine, immobilized, and imaged. The scan time was 10 min. The images were reconstructed using the ordered subset expectation maximization method; no attenuation correction was used.

[6] = tested on: PC3 tumors; test: MicroPET imaging of PC3 tumor-bearing mice; assay type: in vivo; conditions: 3.7 MBq via tail vein, greatest radioactivity concentration at 30 min PI

Question: For “c(Lys-Ala-His-Trp-Gly-Phe-Thr-Leu-Asp)NH2 (sidechain bridge or staple) [C6]”, which “increase in gelatinase inhibition relative to CTT” value [1] is on record?
Answer: 4 fold

Question: What does the source list for CC(C)C[C@@H]1NC(=O)[C@H]([C@@H](C)O)NC(=O)[C@H](Cc2ccccc2)NC(=O)CNC(=O)[C@H](Cc2c[nH]c3ccccc23)NC(=O)[C@H](Cc2c[nH]cn2)NC(=O)[C@H](C)NC(=O)[C@@H](NC(=O)CN2CCN(CC(=O)O)CCN(CC(=O)O)CC2)CCCCNC(=O)C[C@@H](C(N)=O)NC1=O [[^18F]AlF-NOTA-C6] ({NOTA}-KAHWGFTLD-NH2; lactam 1-9)?
Answer: radioactive degradation products [2]: absence; radioactivity in the form of [18F]AlF-NOTA-C6 ([2]; physiological saline, room temperature, 4 h incubation, radio-HPLC): > 95%; tissue uptake at 0.5 h ([3]; Fat uptake): 0.44 ± 0.08 %ID/g; tissue uptake at 1 h ([3]; Fat uptake): 0.18 ± 0.1 %ID/g; tissue uptake at 2 h ([3]; Fat uptake): 0.12 ± 0.07 %ID/g; tissue uptake at 0.5 h ([3]; Gut uptake): 0.47 ± 0.09 %ID/g; tissue uptake at 1 h ([3]; Gut uptake): 0.13 ± 0.07 %ID/g; tissue uptake at 2 h ([3]; Gut uptake): 0.12 ± 0.07 %ID/g; tissue uptake at 0.5 h ([3]; Kidney uptake): 7.14 ± 0.05 %ID/g; tissue uptake at 1 h ([3]; Kidney uptake): 4.55 ± 1.38 %ID/g; tissue uptake at 2 h ([3]; Kidney uptake): 4.72 ± 0.31 %ID/g; tissue uptake at 0.5 h ([3]; Muscle uptake): 0.57 ± 0.15 %ID/g; tissue uptake at 1 h ([3]; Muscle uptake): 0.08 ± 0.04 %ID/g; tissue uptake at 2 h ([3]; Muscle uptake): 0.21 ± 0.08 %ID/g; tissue uptake at 0.5 h ([3]; Pancreas uptake): 0.35 ± 0.01 %ID/g; tissue uptake at 1 h ([3]; Pancreas uptake): 0.16 ± 0.14 %ID/g; tissue uptake at 2 h ([3]; Pancreas uptake): 0.09 ± 0.06 %ID/g; tissue uptake at 0.5 h ([3]; Sexual gland uptake): 0.5 ± 0.12 %ID/g; tissue uptake at 1 h ([3]; Sexual gland uptake): 0.05 ± 0.03 %ID/g; tissue uptake at 2 h ([3]; Sexual gland uptake): 0.09 ± 0.02 %ID/g; tissue uptake at 0.5 h ([3]; Stomach uptake): 0.49 ± 0.31 %ID/g; tissue uptake at 1 h ([3]; Stomach uptake): 0.21 ± 0.19 %ID/g; tissue uptake at 2 h ([3]; Stomach uptake): 0.07 ± 0.02 %ID/g; tissue uptake at 0.5 h ([3]; Thyroid uptake): 0.88 ± 0.13 %ID/g; tissue uptake at 1 h ([3]; Thyroid uptake): 0.16 ± 0.07 %ID/g; tissue uptake at 2 h ([3]; Thyroid uptake): 0.3 ± 0.16 %ID/g; tissue uptake at 0.5 h ([3]; Tumor uptake): 1.2 ± 0.24 %ID/g; tissue uptake at 1 h ([3]; Tumor uptake): 0.75 ± 0.25 %ID/g; tissue uptake at 2 h ([3]; Tumor uptake): 0.27 ± 0.14 %ID/g; change of tumor tissue uptake after pre-injection of excess C6 ([4]; SKOV3 tumor-bearing mice, C6 10 mg/kg pre-block versus non-blocked, 60 min PI, P < 0.05): marked reduction; uptake ratio of tumor-to-blood ([4]; mouse, in vivo): > 2 fold; tumor radioactivity concentration in PET ([5]; 30 and 60 min PI): visualized; uptake of the tumors in PET ([5]; 120 min PI): negligible; tumor detection via PET [6]: detected
